Measurements published in paper PMC12207370, “Macrocyclic Peptide Probes for Immunomodulatory Protein CD59: Potent Modulators of Bacterial Toxin Activity and Antibody‐Dependent Cytotoxicity” (Angewandte Chemie (International Ed. in English), 2025).
Read-outs that look alike come from different tables or passages of the source. Peptide text beside a SMILES is read from it.

Assays:
[1] = target: T1, CD59 (Homo sapiens, UniProt P13987); test: SPR (Biacore S200) binding to immobilised biotinylated CD59
T1 construct: Recombinant soluble human CD59 with an additional C-terminal cysteine residue
T1 sequence (P13987 26-102 limits assumed): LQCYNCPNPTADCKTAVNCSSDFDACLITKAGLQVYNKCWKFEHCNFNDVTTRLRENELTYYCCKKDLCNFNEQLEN
Text: To identify which of these peptides bound CD59 most tightly, we used a Biacore S200 surface plasmon resonance (SPR) platform to investigate CD59 affinity (Figure 2b), using a known protein binding partner of CD59 (rILYd4) as a benchmark. Four 13‐mer macrocyclic peptides and one 14‐mer macrocyclic peptide were identified with a dissociation constant (K D) lower than that of rILYd4. Considering their fourfold lower molecular weight, these peptides bind with up to 19‐fold greater efficiency compared to rILYd4 (Figure 2b).
Equipment: SPR analysis was performed on a Cytiva Biacore S200. All buffers were prepared using ultra-pure water from a Millipore Elix Q-Gard purification system. Solutions and buffers were filtered with a 0.22 μm filter and degassed prior to use. The assays were performed on Series S streptavidin (SA) sensor chip (Cytiva). PBS-P+ buffer 10X (0.2 M phosphate buffer with 27 mM KCl, 1.37 M NaCl and 0.5% Surfactant P20 (Tween 20)) was used for the preparation of the assay running buffer (PBS-P+ 1X).
Immobilisation of CD59-biotin: Biotinylated CD59 was immobilised on the surface of a SA chip by non-covalent capture (biotin streptavidin interaction) as per the manufacturer’s instructions. The system was initially primed with running buffer and normalised using BIAnormalizing solution (70% (w/w) glycerol) (Cytiva). Before immobilising the protein, the surface was conditioned with three consecutive one-minute injections of 1 M NaCl in 50 mM NaOH. Biotinylated CD59 (0.5 µg/mL in running buffer) was flowed over the protein (active) channel for different contact times to achieve different immobilisation levels (600–1200 RU). After each protein injection, the needle and injection loop were washed using 50% isopropanol in 1 M NaCl and 50 mM NaOH. A reference channel was prepared by similar treatment; however, running buffer alone rather than CD59-biotin in running buffer was flowed over the chip the same way.
Interaction analysis: Multicycle kinetic and affinity approach was used for the analysis of peptides interactions with CD59. Two-fold serial dilutions of each peptide were prepared in running buffer and were flowed over both the ligand and reference channel using a flow rate (30 μL/min) at 25 °C. A zero concentration was added to each analyte series and three cycles of buffer were run between analytes to restore the baseline. The obtained sensorgrams were analysed using the embedded Biacore S200 Evaluation software. The data were normalised by subtracting RU values of the reference channel and zero concentration of the analyte series. Kinetic rate constants (kon and koff) were determined by fitting the normalised data using the built-in Kinetic analysis model (non-linear regression with a 1:1 Langmuir binding model), KD values were then calculated from the two rate constants ([…]). The KD values were determined again by fitting the normalised data using the built-in Affinity analysis model (1:1 Langmuir binding model).

[2] = target: T2, biotinylated CD59 (Homo sapiens, UniProt P13987); test: mRNA-display cyclic peptide screen against CD59-biotin, NGS abundance after 6th selection round; conditions: for Counts (raw counts for peptide sequence), Seq I: NGS sample Seq I; for Counts (raw counts for peptide sequence), Seq I / Counts (raw counts for peptide sequence), Seq II / Counts Seq I / Counts Seq II: sheet R6 (6th selection round); for Counts (raw counts for peptide sequence), Seq II: NGS sample Seq II; for Percentage of the pool, averaged across the two sequencing samples: average of Seq I and Seq II; for Percentage of the pool, averaged across the two sequencing samples / Percentage of the pool, Seq I / Percentage of the pool, Seq II / Percentage Seq I / Percentage Seq II / Percentage Average: sheet R6; for Percentage of the pool, Seq I: counts normalised by total counts of NGS sample Seq I; for Percentage of the pool, Seq II: counts normalised by total counts of NGS sample Seq II; for Percentage Seq I: counts normalised by total counts of sample Seq I; for Percentage Seq I / Percentage Seq II: percentage of the pool; for Percentage Seq II: counts normalised by total counts of sample Seq II; for Percentage Average: percentage of the pool averaged across the two sequencing samples; for Counts Seq I / Counts Seq II: raw NGS counts of peptide sequence; for Counts Seq I: sequencing sample Seq I; for Counts Seq II: sequencing sample Seq II
T2 construct: Recombinant soluble human CD59 with an additional C-terminal cysteine residue
T2 sequence (P13987 26-102 limits assumed): T1 sequence (P13987 26-102 limits assumed)
In short: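 Peptide–mRNA fusions were made by in vitro translation with a customised PURE express kit. The kit lacked release factor 1 and methionine and was supplemented with […] initiator tRNA carrying N-chloroacetyl-d-tyrosine. Thioether macrocycles were formed, then enriched and amplified over iterative rounds on CD59-biotin immobilised on streptavidin beads. NGS read counts per sequence were recorded after the 6th selection round.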

Compound | Kd ([1]; SPR, Figure S2T, read-out: KD) [nM] | Kd ([1]; SPR, immobilized CD59, average of three technical replicates ± SEM, read-out: KD (nM) ± SEM) [nM] | Kd ([1]; Ala scan of CP-06, SPR, n = 1, read-out: KD) [nM] | Counts (raw counts for peptide sequence), Seq I [2] | Counts (raw counts for peptide sequence), Seq II [2] | Percentage of the pool, averaged across the two sequencing samples [2] [%] | Percentage of the pool, Seq I [2] [%] | Percentage of the pool, Seq II [2] [%] | Percentage Seq I [2] [%] | Percentage Seq II [2] [%] | Percentage Average [2] [%] | Counts Seq I [2] | Counts Seq II [2]
CC(C)[C@@H]1NC(=O)[C@H](CO)NC(=O)[C@H](CO)NC(=O)[C@H](CCCNC(=N)N)NC(=O)[C@H](CC(N)=O)NC(=O)CNC(=O)[C@H](Cc2c[nH]c3ccccc23)NC(=O)[C@H]([C@@H](C)O)NC(=O)[C@H](Cc2c[nH]c3ccccc23)NC(=O)[C@H](CO)NC(=O)[C@@H](Cc2ccc(O)cc2)NC(=O)CSC[C@@H](C(=O)NCC(=O)N[C@@H](CO)C(=O)NCC(=O)N[C@@H](CO)C(=O)NCC(=O)N[C@@H](CO)C(=O)N[C@@H](CCCCN)C(N)=O)NC(=O)CNC(=O)[C@H](CCCNC(=N)N)NC1=O [CP-06-GSGSGSK] (HELM PEPTIDE1{[O=C(C[*:3])[*:2]].[dY].S.W.T.W.G.N.R.S.S.V.R.G.C.G.S.G.S.G.S.K.[am]}$PEPTIDE1,PEPTIDE1,1:R3-15:R3$$$V2.0) | 18 |  |  |  |  |  |  |  |  |  |  |  | 
CC(C)[C@@H]1NC(=O)[C@H](Cc2ccccc2)NC(=O)[C@@H](Cc2ccc(O)cc2)NC(=O)CSC[C@@H](C(N)=O)NC(=O)CNC(=O)[C@H](CCCNC(=N)N)NC(=O)[C@H]([C@@H](C)O)NC(=O)[C@H](Cc2c[nH]cn2)NC(=O)[C@H](CC(=O)O)NC(=O)[C@H](CCCNC(=N)N)NC(=O)[C@H](CC(N)=O)NC(=O)CNC(=O)[C@H]([C@@H](C)O)NC1=O [CP-02] (HELM PEPTIDE1{[O=C(C[*:3])[*:2]].[dY].F.V.T.G.N.R.D.H.T.R.G.C.[am]}$PEPTIDE1,PEPTIDE1,1:R3-14:R3$$$V2.0) |  | 15.3 ± 0.2 |  |  |  |  |  |  |  |  |  |  | 
CC(C)[C@@H]1NC(=O)[C@H](CO)NC(=O)[C@H](CO)NC(=O)[C@H](CCCNC(=N)N)NC(=O)[C@H](CC(N)=O)NC(=O)CNC(=O)[C@H](Cc2c[nH]c3ccccc23)NC(=O)[C@H]([C@@H](C)O)NC(=O)[C@H](Cc2c[nH]c3ccccc23)NC(=O)[C@H](CO)NC(=O)[C@@H](Cc2ccc(O)cc2)NC(=O)CSC[C@@H](C(N)=O)NC(=O)[C@H](C)NC(=O)[C@H](CCCNC(=N)N)NC1=O [CP-06-G13A] (HELM PEPTIDE1{[O=C(C[*:3])[*:2]].[dY].S.W.T.W.G.N.R.S.S.V.R.A.C.[am]}$PEPTIDE1,PEPTIDE1,1:R3-15:R3$$$V2.0) |  |  | 678 |  |  |  |  |  |  |  |  |  | 
HVFGNRSLTRG |  |  |  | 93 | 5 | 0.016 | 0.021 | 0.012 |  |  |  |  | 
LCYVKGSKDFT |  |  |  |  |  |  |  |  | 0.027 | 0.019 | 0.023 | 120 | 8
CFAGRLTIDAA |  |  |  | 78 | 1 | 0.010 | 0.018 | 0.00232 |  |  |  |  | 
VAHGSKKSQFW |  |  |  |  |  |  |  |  | 0.088 | 0.104 | 0.096 | 386 | 45
CYGGRTLIYAWS |  |  |  |  |  |  |  |  | 0.028 | 0.019 | 0.023 | 121 | 8
WRDRFDQCIL |  |  |  | 60 | 5 | 0.013 | 0.014 | 0.012 |  |  |  |  | 
FVTGNRDHTRV |  |  |  | 35 | 5 | 0.010 | 0.008 | 0.012 |  |  |  |  | 
HSYGSSQIAYH |  |  |  | 74 | 8 | 0.018 | 0.017 | 0.019 |  |  |  |  | 
CYGDRTFIYAWS |  |  |  | 53 | 10 | 0.018 | 0.012 | 0.023 |  |  |  |  | 
CFSRRLTVGAI |  |  |  | 40 | 6 | 0.012 | 0.009 | 0.014 |  |  |  |  | 
SAWGNRQIQYY |  |  |  |  |  |  |  |  | 7.073 | 7.046 | 7.059 | 30945 | 3036
FVRGNSTSVLF |  |  |  |  |  |  |  |  | 0.020 | 0.019 | 0.019 | 88 | 8
CFSPRVTEHST |  |  |  | 62 | 8 | 0.016 | 0.014 | 0.019 |  |  |  |  | 
STYNDFFRVPC |  |  |  |  |  |  |  |  | 0.149 | 0.200 | 0.174 | 650 | 86
GPRNECHSQFQN |  |  |  |  |  |  |  |  | 0.092 | 0.086 | 0.089 | 401 | 37
SAWGNRQTQYY |  |  |  |  |  |  |  |  | 1.151 | 1.160 | 1.156 | 5037 | 500
CFSRRLTAGAS |  |  |  |  |  |  |  |  | 0.024 | 0.028 | 0.026 | 106 | 12
SWTWGNRTSVRG |  |  |  | 36 | 7 | 0.012 | 0.008 | 0.016 |  |  |  |  | 
CFSYRIRSAYDL |  |  |  |  |  |  |  |  | 0.028 | 0.030 | 0.029 | 124 | 13
CFSRRVTYPHQV |  |  |  | 31 | 8 | 0.013 | 0.007 | 0.019 |  |  |  |  | 
RGGTRDTIWG |  |  |  |  |  |  |  |  | 0.078 | 0.063 | 0.070 | 340 | 27
QWNRWYGIDER |  |  |  |  |  |  |  |  | 0.021 | 0.023 | 0.022 | 94 | 10
CFAGRLTTDAV |  |  |  |  |  |  |  |  | 0.044 | 0.044 | 0.044 | 193 | 19
WSTRERQISC |  |  |  | 70 | 3 | 0.011 | 0.016 | 0.007 |  |  |  |  | 
CFLYRNNPDSV |  |  |  |  |  |  |  |  | 0.069 | 0.067 | 0.068 | 303 | 29
CYTAGSASWSRG |  |  |  |  |  |  |  |  | 0.726 | 0.680 | 0.703 | 3176 | 293
